{
  "source": "paper PMC12429042",
  "about": "“Contribution of Second-Shell Residues to PLP-Dependent Transaminase Catalysis: A Case Study of D-Amino Acid Transaminase from Desulfomonile tiedjei” (International Journal of Molecular Sciences, 2025)",
  "molecules": {"B1": {"name": "DestiTA T43E variant (enzyme, Desulfomonile tiedjei DSM 6799, UniProt I4C827 1-302, looked up)", "chain": "MNSPSEVITIISYQRDRFVTTEELCFPFIGDVGGTIRGYRIFEACRTCGDKIFRIEDHLDRLYYSAASIYMKPPMNRDSLRTLLYALIQENRKAGFKDDLLIDIIFSGGLEDHTMAQSGSSAYLYIAVRELIVPPSEYYEKGVALATCSYMRMYPDVKLLNYMGAIMAHQTVVPLHNAYDVIFIYPPDGVTILEGSTFTVFFVNAEGTVVTPPLDGKILDSVTRRVVLQVLQQSGKIRLKEDRVRLDELETYPEAFMVSTTRNVLPVVRIDDRIIGSGQPGPVTREIMHLVEQYVTTFSLQQ", "notes": "DestiTA of Desulfomonile tiedjei DSM 6799, gene Desti_3054, Uniprot ID I4C827_DESTA, with T43E; Made by single-primer site-directed mutagenesis; also called the T43E variant; source: E. coli, purified as described for the WT DestiTA; not shown: His6, N-terminal, cleaved"}, "B2": {"name": "DestiTA T199N variant (enzyme, Desulfomonile tiedjei DSM 6799, UniProt I4C827 1-302, looked up)", "chain": "B1 chain with E43T, T199N", "notes": "DestiTA of Desulfomonile tiedjei DSM 6799, gene Desti_3054, Uniprot ID I4C827_DESTA, with T199N; Made by single-primer site-directed mutagenesis; also called the T199N variant; source: E. coli, purified as described for the WT DestiTA; not shown: His6, N-terminal, cleaved"}, "B3": {"name": "D-amino acid transaminase from Desulfomonile tiedjei (DestiTA), wild type (enzyme, Desulfomonile tiedjei DSM 6799, UniProt I4C827 1-302, looked up)", "chain": "B1 chain with E43T", "notes": "PLP-dependent fold type IV transaminase DestiTA of Desulfomonile tiedjei DSM 6799, gene Desti_3054, Uniprot ID I4C827_DESTA; recombinant DestiTA printed as 302 a.a., 34.2 kDa; codon-optimised synthetic gene in modified pET-21d; N-terminal (His)6-TEV-tag removed with TEV protease; also called WT DestiTA; WT; source: E. coli Rosetta(DE3) pLysS, purified (HisTrap HP, TEV cleavage, second HisTrap HP, …)"}, "B4": {"name": "DestiTA T199Q variant (enzyme, Desulfomonile tiedjei DSM 6799, UniProt I4C827 1-302, looked up)", "chain": "B1 chain with E43T, T199Q", "notes": "DestiTA of Desulfomonile tiedjei DSM 6799, gene Desti_3054, Uniprot ID I4C827_DESTA, with T199Q; Made by single-primer site-directed mutagenesis; also called the T199Q variant; source: E. coli, purified as described for the WT DestiTA; not shown: His6, N-terminal, cleaved"}},
  "key": {"DestiTA [1]": {"target": "T1, DestiTA (Desulfomonile tiedjei, UniProt I4C827, T199Q)", "T1 construct": "gene Desti_3054; recombinant in E. coli Rosetta(DE3) pLysS, codon-optimized gene in modified pET-21d; N-terminal (His)6-TEV tag cut with TEV protease; homodimer about 68 kDa by gel filtration", "T1 sequence (I4C827 entry or part of it T199Q)": "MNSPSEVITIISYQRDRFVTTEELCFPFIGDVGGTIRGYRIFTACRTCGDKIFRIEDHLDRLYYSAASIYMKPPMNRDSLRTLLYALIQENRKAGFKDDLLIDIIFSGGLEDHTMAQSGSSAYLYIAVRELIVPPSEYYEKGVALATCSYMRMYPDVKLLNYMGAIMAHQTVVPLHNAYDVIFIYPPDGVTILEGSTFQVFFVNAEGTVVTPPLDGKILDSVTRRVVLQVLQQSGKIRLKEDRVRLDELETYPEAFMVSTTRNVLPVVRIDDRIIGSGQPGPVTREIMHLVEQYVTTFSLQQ", "test": "thermal shift assay (ThermoFluor) on apoenzyme, quadratic fit", "assay_type": "binding", "settings": "50 mM K-phosphate, pH 8.0; 2 µM apoenzyme incubated with 0.5–500 µM PLP 1 h at 25 °C; covalent (Schiff base to K158)"}, "DestiTA [2]": {"target": "T2, DestiTA (Desulfomonile tiedjei, UniProt I4C827)", "T2 construct": "gene Desti_3054; recombinant in E. coli Rosetta(DE3) pLysS, codon-optimized gene in modified pET-21d; N-terminal (His)6-TEV tag cut with TEV protease; homodimer about 68 kDa by gel filtration", "T2 sequence (I4C827 1-302)": "B1 chain with E43T", "test": "thermal shift assay (ThermoFluor) on apoenzyme, quadratic fit", "assay_type": "binding", "settings": "50 mM K-phosphate, pH 8.0; 2 µM apoenzyme incubated with 0.5–500 µM PLP 1 h at 25 °C; covalent (Schiff base to K158)"}, "DestiTA [3]": {"target": "T3, DestiTA (Desulfomonile tiedjei, UniProt I4C827, T199N)", "T3 construct": "gene Desti_3054; recombinant in E. coli Rosetta(DE3) pLysS, codon-optimized gene in modified pET-21d; N-terminal (His)6-TEV tag cut with TEV protease; homodimer about 68 kDa by gel filtration", "T3 sequence (I4C827 entry or part of it T199N)": "as the sequence (I4C827 entry or part of it T199Q) above, with Q199N counted along it", "test": "thermal shift assay (ThermoFluor) on apoenzyme, quadratic fit", "assay_type": "binding", "settings": "50 mM K-phosphate, pH 8.0; 2 µM apoenzyme incubated with 0.5–500 µM PLP 1 h at 25 °C; covalent (Schiff base to K158)"}, "purified protein [4]": {"substrate": "O=C(O)CCC(=O)C(=O)O", "test": "purified protein", "assay_type": "biochemical, Desulfomonile tiedjei", "settings": "co-substrate D-alanine, 50 mM K-phosphate, 30 µM PLP"}, "[5]": {"target": "the molecule itself", "test": "SEC; gel filtration of the purified enzyme; molecular weight approximately 68 kDa for the WT (subunit 34.2 kDa); self-association, homodimer"}, "purified protein [6]": {"substrate": "C[C@@H](N)C(=O)O", "test": "purified protein", "settings": "co-substrate α-ketoglutarate, 50 mM K-phosphate, 30 µM PLP"}, "purified protein [7]": {"substrate": "C[C@@H](N)c1ccccc1", "test": "purified protein", "assay_type": "biochemical, Desulfomonile tiedjei", "settings": "co-substrate α-ketoglutarate, 50 mM Na-pyrophosphate, pH 9.0, 50 °C, 30 µM PLP"}},
  "note": "Residue numbers refer to the chain shown, from its start. Names and notes keep the numbering of the source.",
  "data": [
    {"molecule": "Cc1ncc(COP(=O)(O)O)c(C=O)c1O", "note": "[PLP]", "values": [
      {"measurement": "Kd", "setting": "DestiTA [1]", "value": "2200 ± 400", "unit": "nM"},
      {"measurement": "Kd", "setting": "DestiTA [2]", "value": "11 ± 1", "unit": "µM"},
      {"measurement": "Kd", "setting": "DestiTA [3]", "value": "33 ± 2", "unit": "µM"}
    ]},
    {"molecule": "B1", "values": [
      {"measurement": "Km", "setting": "purified protein [4]; pH 6.5, 40 °C", "value": "2.8 ± 0.9", "unit": "mM"},
      {"measurement": "kcat", "setting": "purified protein [4]; pH 6.5, 40 °C", "value": "0.15 ± 0.01", "unit": "s⁻¹"},
      {"measurement": "kcat/Km", "setting": "purified protein [4]; pH 6.5, 40 °C", "value": "54 ± 30", "unit": "M⁻¹ s⁻¹"},
      {"measurement": "stoichiometry N", "setting": "[5]", "value": 2},
      {"measurement": "Km", "setting": "purified protein [6]; pH 6.5, 40 °C, pH 6.5, 40.0 °C", "value": "2.9 ± 0.8", "unit": "mM"},
      {"measurement": "kcat", "setting": "purified protein [6]; pH 6.5, 40 °C, pH 6.5, 40.0 °C", "value": 0.15, "unit": "s⁻¹"},
      {"measurement": "kcat/Km", "setting": "purified protein [6]; pH 6.5, 40 °C, pH 6.5, 40.0 °C", "value": 52, "unit": "M⁻¹ s⁻¹"}
    ]},
    {"molecule": "B2", "values": [
      {"measurement": "Km", "setting": "purified protein [4]; pH 8.0, 50 °C", "value": "0.21 ± 0.03", "unit": "mM"},
      {"measurement": "kcat", "setting": "purified protein [4]; pH 8.0, 50 °C", "value": "5 ± 0.2", "unit": "s⁻¹"},
      {"measurement": "kcat/Km", "setting": "purified protein [4]; pH 8.0, 50 °C", "value": "24000 ± 4000", "unit": "M⁻¹ s⁻¹"},
      {"measurement": "stoichiometry N", "setting": "[5]", "value": 2},
      {"measurement": "Km", "setting": "purified protein [6]; pH 8.0, 50 °C, pH 8.0, 50.0 °C", "value": "0.52 ± 0.07", "unit": "mM"},
      {"measurement": "kcat", "setting": "purified protein [6]; pH 8.0, 50 °C, pH 8.0, 50.0 °C", "value": 5, "unit": "s⁻¹"},
      {"measurement": "kcat/Km", "setting": "purified protein [6]; pH 8.0, 50 °C, pH 8.0, 50.0 °C", "value": "10000 ± 2000", "unit": "M⁻¹ s⁻¹"}
    ]},
    {"molecule": "B3", "values": [
      {"measurement": "Km", "setting": "purified protein [7]", "value": "17 ± 2", "unit": "mM"},
      {"measurement": "kcat", "setting": "purified protein [7]", "value": "0.7 ± 0.1", "unit": "s⁻¹"},
      {"measurement": "kcat/Km", "setting": "purified protein [7]", "value": "70 ± 20", "unit": "M⁻¹ s⁻¹"},
      {"measurement": "Km", "setting": "purified protein [4]; pH 8.0, 50 °C", "value": "0.11 ± 0.01", "unit": "mM"},
      {"measurement": "kcat", "setting": "purified protein [4]; pH 8.0, 50 °C", "value": "5.8 ± 0.2", "unit": "s⁻¹"},
      {"measurement": "kcat/Km", "setting": "purified protein [4]; pH 8.0, 50 °C", "value": "53000 ± 8000", "unit": "M⁻¹ s⁻¹"},
      {"measurement": "stoichiometry N", "setting": "[5]", "value": 2},
      {"measurement": "Km", "setting": "purified protein [6]; pH 8.0, 50 °C, pH 8.0, 50.0 °C", "value": "0.5 ± 0.1", "unit": "mM"},
      {"measurement": "kcat", "setting": "purified protein [6]; pH 8.0, 50 °C, pH 8.0, 50.0 °C", "value": 5.8, "unit": "s⁻¹"},
      {"measurement": "kcat/Km", "setting": "purified protein [6]; pH 8.0, 50 °C, pH 8.0, 50.0 °C", "value": "11600 ± 3000", "unit": "M⁻¹ s⁻¹"}
    ]},
    {"molecule": "B4", "values": [
      {"measurement": "Km", "setting": "purified protein [4]; pH 8.0, 50 °C", "value": "0.45 ± 0.07", "unit": "mM"},
      {"measurement": "kcat", "setting": "purified protein [4]; pH 8.0, 50 °C", "value": "8.4 ± 0.4", "unit": "s⁻¹"},
      {"measurement": "kcat/Km", "setting": "purified protein [4]; pH 8.0, 50 °C", "value": "19000 ± 4000", "unit": "M⁻¹ s⁻¹"},
      {"measurement": "stoichiometry N", "setting": "[5]", "value": 2},
      {"measurement": "Km", "setting": "purified protein [6]; pH 8.0, 50 °C, pH 8.0, 50.0 °C", "value": "50 ± 6", "unit": "mM"},
      {"measurement": "kcat", "setting": "purified protein [6]; pH 8.0, 50 °C, pH 8.0, 50.0 °C", "value": 8.4, "unit": "s⁻¹"},
      {"measurement": "kcat/Km", "setting": "purified protein [6]; pH 8.0, 50 °C, pH 8.0, 50.0 °C", "value": 170, "unit": "M⁻¹ s⁻¹"}
    ]}
  ]
}
